Laboratory results: article PMC5345230, “Disruption of TWIST1-RELA binding by mutation and competitive inhibition to validate the TWIST1 WR domain as a therapeutic target” (BMC Cancer, 2017)
Positions count from the first letter of the chain named. Numbers in names are those of the source.

B1: TWIST1 E193A (natural protein, human, UniProt Q15672 1-202, looked up)
chain: MMQDVSSSPVSPADDSLSNSEEEPDRQQPPSGKRGGRKRRSSRRSAGGGAGPGGAAGGGVGGGDEPGSPAQGKRGKKSAGCGGGGGAGGGGGSSSGGGSPQSYEELQTQRVMANVRERQRTQSLNEAFAALRKIIPTLPSDKLSKIQTLKLAARYIDFLYQVLQSDELDSKMASCSYVAHERLSYAFSVWRMAGAWSMSASH
B2: TWIST1 R191A (natural protein, human, UniProt Q15672 1-202, looked up)
chain: B1 chain with R191A, A193E
B3: TWIST1 W190A (natural protein, human, UniProt Q15672 1-202, looked up)
chain: B1 chain with W190A, A193E

Target: RELA (wild type), NF-kB subunit p65 (UniProt Q04206 1-551)
Sequence (Q04206 whole entry): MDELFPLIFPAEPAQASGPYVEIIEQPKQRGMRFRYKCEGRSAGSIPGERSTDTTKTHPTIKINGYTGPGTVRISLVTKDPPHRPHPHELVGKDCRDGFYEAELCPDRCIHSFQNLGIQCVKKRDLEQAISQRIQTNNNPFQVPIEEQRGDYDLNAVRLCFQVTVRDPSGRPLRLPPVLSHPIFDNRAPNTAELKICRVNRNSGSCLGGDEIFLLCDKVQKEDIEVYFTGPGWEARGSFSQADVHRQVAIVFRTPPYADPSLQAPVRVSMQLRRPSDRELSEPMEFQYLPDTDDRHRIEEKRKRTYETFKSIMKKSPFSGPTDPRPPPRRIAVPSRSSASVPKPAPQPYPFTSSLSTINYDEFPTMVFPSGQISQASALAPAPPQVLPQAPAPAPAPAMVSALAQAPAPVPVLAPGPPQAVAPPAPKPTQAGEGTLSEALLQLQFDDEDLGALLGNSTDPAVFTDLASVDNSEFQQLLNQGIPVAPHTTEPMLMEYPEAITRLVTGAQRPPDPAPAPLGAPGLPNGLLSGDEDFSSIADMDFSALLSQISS
Experiment: cell-based or functional assay

| Binder | IL-8 promoter driven firefly luciferase (dual luciferase assay) in Ovcar4 cells, reduction against wild type TWIST1 [%] |
| --- | --- |
| B1 | 50 |
| B2 | 50 |
| B3 | 50 |
